Measured values: patent US7127357 (dated 2006)
Non-standard residues stand in square brackets, D forms with d. No end group written: not given here. pS = N[C@@H](COP(=O)(O)O)C(=O)O

Molecular target: F25Y
Assay: binding to CTD phosphopeptide

B1: CTD Repeat Tyr-P.Ser-Pro-Thr-P.Ser-Pro-Ser (peptide)
peptide: Y[pS]PT[pS]PS
modifications: also: tetramethylrhodamine label on an amine, place not given here
Kd: 12 µM
